Data as given in patent publication US20240035010, “COMPOSITIONS COMPRISING A VARIANT POLYPEPTIDE AND USES THEREOF” (Arbor Biotechnologies, Inc., published 2024).

What was measured:
[1] = target: T1, variant nuclease D590G combination (P14R, D32R, I61R, E311R, D590G); test: cell_activity; PAM 5'-TTTG-3'; details: tags: pcDNA3.1 expression
T1 chain: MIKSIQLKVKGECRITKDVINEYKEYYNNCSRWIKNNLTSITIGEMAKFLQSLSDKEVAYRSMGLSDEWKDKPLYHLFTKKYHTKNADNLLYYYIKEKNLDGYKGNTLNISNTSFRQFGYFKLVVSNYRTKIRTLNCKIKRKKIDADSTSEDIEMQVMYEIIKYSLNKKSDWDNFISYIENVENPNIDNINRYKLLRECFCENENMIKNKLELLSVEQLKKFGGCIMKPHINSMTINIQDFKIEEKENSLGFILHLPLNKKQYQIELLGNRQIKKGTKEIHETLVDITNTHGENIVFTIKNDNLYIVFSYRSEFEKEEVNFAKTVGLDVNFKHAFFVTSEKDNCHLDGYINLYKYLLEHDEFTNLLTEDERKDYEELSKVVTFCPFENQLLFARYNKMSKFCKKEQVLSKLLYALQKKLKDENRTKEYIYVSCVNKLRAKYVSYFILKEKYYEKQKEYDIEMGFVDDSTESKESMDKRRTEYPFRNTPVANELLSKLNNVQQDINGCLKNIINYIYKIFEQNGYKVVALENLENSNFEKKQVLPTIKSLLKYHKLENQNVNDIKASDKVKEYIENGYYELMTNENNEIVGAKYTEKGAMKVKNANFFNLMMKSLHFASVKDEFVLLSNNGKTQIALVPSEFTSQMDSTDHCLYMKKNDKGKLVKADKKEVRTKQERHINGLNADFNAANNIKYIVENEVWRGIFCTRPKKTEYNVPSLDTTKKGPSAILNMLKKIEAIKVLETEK
How it was run: (§1)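 HEK293T cells were lipofected with nuclease plasmid (pcDNA3.1 backbone) plus RNA guide plasmid, with guide omitted in negative controls. After ~72 h cells were lysed in QuickExtract and % indels were derived from NGS reads, averaged over two bioreplicates and two technical replicates.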

[2] = target: T2, variant nuclease K35G combination (P14R, D32R, I61R, E311R, K35G); test: cell_activity; PAM 5'-TTTG-3'; details: tags: pcDNA3.1 expression
T2 chain: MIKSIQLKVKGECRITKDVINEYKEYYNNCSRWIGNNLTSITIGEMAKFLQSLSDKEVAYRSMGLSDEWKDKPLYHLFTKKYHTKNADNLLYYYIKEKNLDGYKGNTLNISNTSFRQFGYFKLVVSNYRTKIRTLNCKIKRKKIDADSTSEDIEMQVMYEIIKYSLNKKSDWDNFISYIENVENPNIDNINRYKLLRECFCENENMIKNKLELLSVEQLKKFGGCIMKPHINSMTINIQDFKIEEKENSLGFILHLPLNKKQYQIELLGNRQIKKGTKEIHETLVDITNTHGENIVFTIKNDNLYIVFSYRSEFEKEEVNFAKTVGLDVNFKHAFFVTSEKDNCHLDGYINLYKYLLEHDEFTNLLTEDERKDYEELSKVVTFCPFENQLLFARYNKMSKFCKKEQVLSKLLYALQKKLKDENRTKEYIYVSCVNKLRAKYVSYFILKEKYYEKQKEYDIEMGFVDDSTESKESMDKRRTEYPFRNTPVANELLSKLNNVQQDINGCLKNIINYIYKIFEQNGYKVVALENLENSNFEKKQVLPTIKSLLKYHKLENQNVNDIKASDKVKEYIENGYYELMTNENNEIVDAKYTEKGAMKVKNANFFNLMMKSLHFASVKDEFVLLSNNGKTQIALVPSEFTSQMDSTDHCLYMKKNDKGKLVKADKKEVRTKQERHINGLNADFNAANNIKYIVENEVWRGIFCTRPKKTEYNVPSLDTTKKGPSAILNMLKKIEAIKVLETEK
How it was run: as §1

B1: AAVS1 crRNA ; AAVS1 target (ssRNA ; dsDNA)
RNA: CUUGUUGUAUAUGUCCUUUUAUAGGUAUUAAACAACUGAGAAUGGUGCGUCCUAGG
DNA 1: TGAGAATGGTGCGTCCTAGG
DNA 2: CCTAGGACGCACCATTCTCA
indel activity [1]: 5.96 fold of WT | indel activity [2]: 5.66 fold of WT
